{"source": "paper PMC5931990", "molecular_target": "Mouse CLIC6 CLIC domain (residues 363-597) (mouse) (UniProt Q8BHB9)", "assay": "SEC; analytical gel filtration after 10 minutes with 0 to 2 mM H2O2; running buffer without reducing or oxidative agents"}
{"substance": "Mouse CLIC6 CLIC domain (residues 363-597) (from UniProt Q8BHB9 363-596) (domain or fragment)", "values": [{"measurement": "stoichiometry N", "value": 2}]}
